Assay [1] addresses T1, mouse FcRn (His-tagged, Sino Biological CT009-H08H) (mouse, UniProt Q61559 22-297).
T1 construct: also called mFcRn
T1 sequence (looked up): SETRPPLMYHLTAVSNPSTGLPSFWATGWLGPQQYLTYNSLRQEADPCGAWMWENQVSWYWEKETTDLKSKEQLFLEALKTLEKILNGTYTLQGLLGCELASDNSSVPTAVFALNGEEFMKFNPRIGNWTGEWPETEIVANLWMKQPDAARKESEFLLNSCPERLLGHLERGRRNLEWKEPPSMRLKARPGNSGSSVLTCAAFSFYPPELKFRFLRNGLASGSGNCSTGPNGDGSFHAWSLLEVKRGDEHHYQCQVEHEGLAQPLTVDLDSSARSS
Briefly: BLI summary table, mFcRn, pH 5.8.

The target of assay [2] is T1, mouse FcRn (His-tagged, Sino Biological …). Briefly: BLI summary table, mFcRn, pH 5.8. This is another data set of the same source.
The target is the same in assay [3]. The experiment in a line: BLI summary table, mFcRn, pH 5.8. The source holds these as a separate data set.
Assay [4] has as its target T2, mouse FcγRIV (His-tagged, Sino Biological 50036-M08H) (mouse, UniProt A0A0B4J1G0 21-203).
T2 construct: also called mFcγRIV; not shown: the histidine tag (and any linker) of the Sino Biological construct 50036-M08H
T2 sequence: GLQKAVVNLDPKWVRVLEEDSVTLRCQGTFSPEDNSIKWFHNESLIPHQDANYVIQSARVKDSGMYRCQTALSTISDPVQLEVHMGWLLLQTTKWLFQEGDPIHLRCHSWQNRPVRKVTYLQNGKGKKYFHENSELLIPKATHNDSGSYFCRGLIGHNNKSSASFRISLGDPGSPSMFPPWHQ
The experiment in a line: BLI (Octet QK384): His-tagged receptor on anti-Penta-HIS biosensor, antibody as analyte, PBS pH 7.2. (In general: Biolayer interferometry detects binding as a change in optical thickness at a sensor tip.)

The target of assay [5] is T3, mouse FcγRIII (His-tagged, Sino Biological 50326-M08H) (mouse, UniProt P08508 31-215).
T3 construct: also called mFcγRIII
T3 sequence (looked up): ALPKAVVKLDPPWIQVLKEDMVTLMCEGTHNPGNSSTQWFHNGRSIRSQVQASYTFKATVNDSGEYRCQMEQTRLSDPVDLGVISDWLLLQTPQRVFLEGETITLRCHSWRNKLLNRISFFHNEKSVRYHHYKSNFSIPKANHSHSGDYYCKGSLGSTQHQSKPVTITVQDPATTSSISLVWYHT
The description is as above.

The target in assay [6] is T4, mouse FcγRIIb (His-tagged, Sino Biological 50030-M08H) (mouse, UniProt P08101 30-217).
T4 construct: also called mFcγRIIb
T4 sequence (looked up): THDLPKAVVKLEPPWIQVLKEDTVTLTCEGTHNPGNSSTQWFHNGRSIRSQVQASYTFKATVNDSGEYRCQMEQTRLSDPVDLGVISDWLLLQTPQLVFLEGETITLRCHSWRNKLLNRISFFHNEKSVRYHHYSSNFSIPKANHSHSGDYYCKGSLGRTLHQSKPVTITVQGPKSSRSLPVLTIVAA
The assay is described as above.

Assay [7] concerns the target T1, mouse FcRn (His-tagged, Sino Biological …). Briefly: BLI (Octet QK384): His-tagged mFcRn on anti-Penta-HIS biosensor, antibody as analyte, PBS pH 5.8, global 1:1 fit.
The target in assay [8] is T2, mouse FcγRIV (His-tagged, Sino …). The experiment in a line: BLI summary table, mFcgRIV, pH 7.2.
Assay [9] deals with T4, mouse FcγRIIb (His-tagged, Sino …). The experiment in a line: BLI (Octet QK384): His-tagged receptor on anti-Penta-HIS biosensor, antibody as analyte, PBS pH 7.2. This is another data set of the same source.
Assay [10] concerns the target T1, mouse FcRn (His-tagged, Sino Biological …). The experiment in a line: BLI (Octet QK384): His-tagged mFcRn on anti-Penta-HIS biosensor, antibody as analyte, PBS pH 5.8, global 1:1 fit. The source holds these as a separate data set.
In assay [11] the target is T2, mouse FcγRIV (His-tagged, Sino …). The experiment in a line: BLI (Octet QK384): His-tagged receptor on anti-Penta-HIS biosensor, antibody as analyte, PBS pH 7.2; kon = ND and KD = ND are printed beside it.

Where a chain is given by its changes, count along the chain named. Where two headings read alike, the source gives them in different places.

B1: 4M2-C12 mIgG2a LALA PG (antibody)
heavy: EVKLVESGPGLVKPSQSLSLTCTVTGYSITSDYAWNWIRQFPGNKLEWMGYITYSGNISYNPSLRSRISITRDTSKNQFFLQLNSVTPEDTATYSCARSLYYPWYFDVWGAGTTVTVSSAKTTAPSVYPLAPVCGDTTGSSVTLGCLVKGYFPEPVTLTWNSGSLSSGVHTFPAVLQSDLYTLSSSVTVTSSTWPSQSITCNVAHPASSTKVDKKIEPRGPTIKPCPPCKCPAPNAAGGPSVFIFPPKIKDVLMISLSPIVTCVVVDVSEDDPDVQISWFVNNVEVHTAQTQTHREDYNSTLRVVSALPIQHQDWMSGKEFKCKVNNKDLGAPIERTISKPKGSVRAPQVYVLPPPEEEMTKKQVTLTCMVTDFMPEDIYVEWTNNGKTELNYKNTEPVLDSDGSYFMYSKLRVEKKNWVERNSYSCSVVHEGLHNHHTTKSFSRTPGK
light: DIVITQTPAILSTSPGEKVTMTCRASSSVGYIHWYQQKPGSSPKPWIYATSNLASGVPARFSGSGSGTSNSLTITRVEAEDAATYYCQQWSSYPPITFGGGTKLEVKRADAAPTVSIFPPSSEQLTSGGASVVCFLNNFYPKDINVKWKIDGSERQNGVLNSWTDQDSKDSTYSMSSTLTLTKDEYERHNSYTCEATHKTSTSPIVKSFNRNEC
As usually defined, the kon is a measure of how fast the partners come together. Low values mean slower complex formation, high ones faster complex formation. As usually defined, the koff is the first-order rate constant of dissociation. High values mean a short-lived complex, low ones a long-lived complex. As usually defined, the Kd is the equilibrium constant for the complex coming apart. Lower therefore signals tighter binding. For the molecule B1, the kon in assay [1] and in assay [7] was 270000 M⁻¹ s⁻¹ throughout. The koff in [2] and in [7] was 0.0097 s⁻¹ in each case. In addition, the Kd in assay [3] and in [7] was 35.8 nM throughout. Besides, the binding result in assay [4], in assay [5] and in assay [6] was “no binding” each time.

B2: 4M2-C12 mIgG2a NQ (antibody)
heavy chain: B1 heavy with A236L, A237L, N299Q, G331P
light chain: B1 light
With B2, the kon in assay [1] and in [10] was 180000 M⁻¹ s⁻¹ in each case. The koff is 0.0075 s⁻¹ in [2], 0.348 s⁻¹ in [8], 0.0075 s⁻¹ in assay [10] and 0.348 s⁻¹ in [11]. Also, the Kd in assay [3] and in assay [10] was 42.5 nM throughout. Further, the binding result in [9] is on record as “no binding”.

These data come from US20250313631A1 (HUMMINGBIRD BIOSCIENCE PTE, published 2025).
